Laboratory results reported in patent publication US20230126400A1 (Alector, published 2023).

T1: human MS4A6A ECL1 peptide (amino acid residues 68-85) (human)
T1 peptide: SASFSPNFTQVTSTLLNS

T2: human MS4A6A ECL2 peptide (amino acid residues 138-185) (human)
T2 peptide: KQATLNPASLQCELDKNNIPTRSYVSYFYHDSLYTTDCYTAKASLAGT

T3: human MS4A4A ECL1 peptide (amino acid residues 86-98) (human)
T3 construct: synthetic peptide
T3 peptide: CMASNTYGSNPIS

T4: BSA-conjugated human MS4A4A ECL2 peptide (amino acid residues 159-179) (human, conjugated to BSA (site not stated))
T4 construct: also called MS4A4A-ECL2 BSA conjugated peptide; BSA-MS4A4A-ELC2 peptide
T4 peptide: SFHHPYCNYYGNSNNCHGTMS

T5: human MS4A4A ECL2 peptide (amino acid residues 159-179), free (human)
T5 construct: synthetic peptide; also called huMS4A4A-ELC2 free-peptide
T5 peptide: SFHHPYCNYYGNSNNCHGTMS


Assays:
[1] = target: T1, human MS4A6A ECL1 peptide (amino acid …); experiment: array SPR
Description: (§1) Binding kinetic characterization of the anti-MS4A4A antibodies to MS4A4A ECL1 and ECL2 and to MS4A6A ECL1 and ECL2 peptides was performed by Carterra (South San Francisco, Calif.) using a proprietary array Surface Plasmon Resonance (SPR) instrument (MX-96) as follows. Antibodies were captured onto a CMD500D chip (Xantec # SPMX CMD500D) using the Continous Flow Microspotter (CFM). First, the chip was activated with 100 mM MES pH 5.5, 100 μL EDC (133 mM final), 100 μL of S-NHS (33.3 mM final), for 7 minutes. […] Anti-MS4A4A hydridoma supernatant or purified anti-MS4A4A antibodies were diluted in HBS-EP+ buffer (Teknova Cat # H8022) and then printed as duplicates with a 20 minute and a 5-minute print from the same sample solution.
(§2) These were then injected on the chip for five minutes, followed by a seven-minute dissociation period at 8 uL per second in a non-regenerative kinetic series. Duplicate measurements for each anti-MS4A4A antibody were taken to ensure reproducibility. Association rates (Kon) and dissociation rates (Koff) were calculated using a single one-to-one Langmuir binding model. The equilibrium dissociation constant (KD) was calculated as the ration of Koff/Kon.

[2] = target: T2, human MS4A6A ECL2 peptide (amino acid …); experiment: array SPR
Description: as §1, §2

human MS4A4A [3] = target: T6, human MS4A4A (human, UniProt Q96JQ5 1-239); experiment: FACS, HEK293, supernatant
Description: (§3) Positive clones identified above were expanded and then rescreened for specificity against HEK293 cells overexpressing human MS4A4A or cyno MS4A4A and parental HEK293 cells. These experiments were performed using supernatants from hybridoma clones which had undergone further expansion after initial selection. Briefly, previously prepared, cryopreserved transiently-transfected cells were labeled with LIVE/DEAD Fixable Aqua Dead Cell Stain Kit (ThermoFisher Scientific L34957) on ice for 30 minutes. After a wash with PBS, 2×10⁵ cells were aliquoted per well in 96-well U-bottom plates and incubated with 50 μl of culture supernatant on ice for 30 minutes. […] Following this secondary incubation, the cells were again washed twice with ice-cold FACS buffer and resuspended in a final volume of 200 μl of FACS buffer. Analysis was performed on a FACS Canto system (BD Biosciences), with sort gates drawn to exclude dead (Aqua-positive) cells. Positive clones (fold change of 1.8 or greater) were carried forward for further testing.

cynomolgus (cyno) MS4A4A [4] = target: T7, cynomolgus (cyno) MS4A4A (cynomolgus); experiment: FACS, HEK293, supernatant
T7 construct: also called cy4A; Cyno 4A
Description: as §3

[5] = target: T3, human MS4A4A ECL1 peptide (amino acid …); experiment: ELISA, hybridoma supernatant
Description: (§4) Briefly, 96-well polystyrene plates were coated with 1-10 μg/ml of synthetic free or BSA-conjugated peptides in coating buffer (0.05M carbonate buffer, pH9.6, Millipore Sigma C3041) overnight at 4° C. Coated plates were then blocked with ELISA diluent (PBS+0.5% BSA+0.05% Tween20) for 1-hour, washed 3×300 μL in PBST (PBS+0.05% Tween20, Thermo Cat#28352), and then the antibodies were added to the plate (50 μl/ml). After 30 mins incubation (room temperature, with shaking), the plates were washed 3×300 μL in PBST. […] After a final set of washes (3×300 μL in PBST), 50 μL of TMB substrate (BioFx TMBW-1000-01) was added and the reaction was then quenched after 5-10 mins with 50 μL of stop solution (BioFx BSTP-1000-01). The quenched reaction wells were detected for absorbance at 650 nm with a BioTek Synergy Microplate Reader using GENS 2.04 software.

[6] = target: T4, BSA-conjugated human MS4A4A ECL2 …; experiment: ELISA, hybridoma supernatant
Description: as §4

[7] = target: T4, BSA-conjugated human MS4A4A ECL2 …; experiment: ELISA, supernatant
Description: as §4

cynomolgus (cyno) MS4A4A [8] = target: T7, cynomolgus (cyno) MS4A4A; experiment: flow cytometry (anti-mouse IgG Fc-APC), hybridoma supernatant on 300.19 cells transfected with cyno MS4A4A
Description: Flow cytometry was performed as follows. Briefly, transiently-transfected cells were labeled with LIVE/DEAD Fixable Aqua Dead Cell Stain Kit (ThermoFisher Scientific Cat#L34957) on ice for 30 minutes. […] 2×10⁵ cells were aliquoted per well in 96-well U-bottom plates and incubated with 50 μl of culture supernatant on ice for 30 minutes. […] Following this secondary incubation, the cells were again washed twice with ice-cold FACS buffer and resuspended in a final volume of 200 μl of FACS buffer. Analysis was performed on a FACS Canto system (BD Biosciences), with gates drawn to exclude dead (Aqua-positive) cells.

human MS4A4A [9] = target: T6, human MS4A4A; experiment: functional affinity, FACS titration on stably transfected 300.19 cells
Description: (§5) Determination of functional affinity/KD was carried out as follows. A constant number of 300.19 cells stably transfected with constructs expressing MS4A4A were blocked against non-specific binding, and then incubated with anti-MS4A4A antibodies at various concentrations predetermined to span from saturation-binding to no antibodies present for three hours on ice so the reaction is allowed to achieve near equilibrium. The cells were then washed and incubated with fluorophore-conjugated secondary antibodies, washed again, and signal determined by FACS Cantos (Becton Dickinson, Franklin Lake, N.J.). To determine functional/KD, the four-parameter dose response curve with variable slope was fitted onto the data by Prism (Graphpad, San Diego, Calif.), based on the multiple independent binding site model described by Drake and Klakamp, supra.

cynomolgus (cyno) MS4A4A [10] = target: T7, cynomolgus (cyno) MS4A4A; experiment: as above
Description: as §5

[11] = target: T3, human MS4A4A ECL1 peptide (amino acid …); experiment: peptide ELISA
Description: as §4, with “[…]” for “1-10 μg/ml”, “Cat#C3041)” for “C3041)”, “μl/well).” for “μl/ml).”, “Cat#TMBW-1000-01)” for “TMBW-1000-01)”, “Cat#BSTP-1000-01).” for “BSTP-1000-01).”, “650nm” for “650 nm”

[12] = target: T5, human MS4A4A ECL2 peptide (amino acid …); experiment: peptide ELISA
Description: as §4, with “[…]” for “1-10 μg/ml”, “Cat#C3041)” for “C3041)”, “μl/well).” for “μl/ml).”, “Cat#TMBW-1000-01)” for “TMBW-1000-01)”, “Cat#BSTP-1000-01).” for “BSTP-1000-01).”, “650nm” for “650 nm”

Binder | binding result [1] | binding result [2] | Human 4A:parental cell ratio (human MS4A4A [3]) [ratio] | Cyno 4A:parental cell ratio (cynomolgus (cyno) MS4A4A [4]) [ratio] | binding result [5] | binding result [6] | Kd (human MS4A4A [9]) [nM] | Kd (cynomolgus (cyno) MS4A4A [10]) [nM] | binding result [11] | further results
anti-MS4A4A antibody 4A-18, huIgG1 chimera (antibody, V domains shown, also called 4A-18 (hIgG1)) VH: QVQLQQPGTELVKPGASVKLSCKASGYTFTSYWIHWVKQRPGQGLEWIGNINPTNGGTNYNERFKSKATLTVDKSSSTAYMQLSSLTSEDSAVYYCARAYYYGSSLFAYWGQGTLVTVSA VL: DIVMTQSQKFMSTTVGDRVSITCKASQNVGTAVAWSQQKPGQSPKLLIYSASYRHTGVPDRFTGSGSGTDFTLTITNMQSEDLADYFCQQYSTYPWTFGGGTKLEIK |  |  |  |  |  |  | 0.84 | 3.1 |  | 
anti-MS4A4A antibody 4A-18 (murine) (antibody, IgG1, V domains shown, murine hybridoma antibody, msIgG1; also called 4A-18 (msIgG1)) VH: QVQLQQPGTELVKPGASVKLSCKASGYTFTSYWIHWVKQRPGQGLEWIGNINPTNGGTNYNERFKSKATLTVDKSSSTAYMQLSSLTSEDSAVYYCARAYYYGSSLFAYWGQGTLVTVSA VL: DIVMTQSQKFMSTTVGDRVSITCKASQNVGTAVAWSQQKPGQSPKLLIYSASYRHTGVPDRFTGSGSGTDFTLTITNMQSEDLADYFCQQYSTYPWTFGGGTKLEIK | no binding (tested: 2000 nM) | no binding (tested: 2000 nM) |  |  |  | no binding | 1.6 |  | no binding | 
anti-MS4A4A antibody 4A-21, huIgG1 chimera (antibody, V domains shown, also called 4A-21 (hIgG1)) VH: QIQLVQSGPELKKPGETVKISCKASGYIFTSYGLSWVKQTPGKGLKWMGWINTYSGVPTYANDFKGRFAFSLETSASTTYLRINNLKNDDTATYFCARSLVDYWGQGTPLTVSS VL: not shown |  |  |  |  |  |  |  | 7.6 |  | 
anti-MS4A4A antibody 4A-17 (antibody, V domains shown, murine hybridoma antibody) VH: QVQLQQSAAELMKPGASVKLSCKATGYTFTGYWIEWLKQRPGHGLEWIGEILPGIGNTKYSEKFKGKATFTADTSSNTAYMQLSSLTTEDSAIYYCARSLLRAMDYWGQGTSVTVSS VL: QIVLTQSPAIMSASPGEKVTMTCSAISSISYMHWYQLKPGTSPKRWIYDTSKLASGVPARFSGSGSGTSYSLTISSMEAEDAATYYCHQRSSYPYTFGGGTKLEIK | no binding (tested: 2000 nM) | no binding (tested: 2000 nM) | 4.83 | 1.67 | no binding | no binding |  |  |  | 
anti-MS4A4A antibody 4A-202 (murine) (antibody, V domains shown, murine hybridoma antibody) VH: QVQLQQSGAELARPGASVKLSCKASGYTFTNYWMQWVKQRPGQGLEWIGATHPGHGDTRYTQKFKGKATLSADKSSSTAYMQLSNLASEDSAVYYCAREEVYYGFRSYWYFDVWGAGTTVTVSS VL: not shown |  |  |  |  |  |  |  |  | no binding | binding result [12]: binds
anti-MS4A4A antibody 4A-25 (antibody, V domains shown, purified murine antibody) VH: QVTLKESGPGILQPSQTLSLTCSFSGFSLRTSDMGVGWVRQPSGEGLEWLADIWWDDNKYYNPSLKSRLTISKDTSSNQVFLKITSVDTADTATYYCARRANYGNLFDYWGQGTAVTVSS VL: DIVMTQSLKFMSTSVGDRVSITCKASQNVRSAVAWYQQKPGQSPKVLIYWASNRHTGVPDRFTGSGSGTDFTLTISNVQSEDLADYFCLQHWNYLTFGSGTKLEIK |  |  |  |  |  |  |  |  | no binding | binding result [12]: binds

Second part, led by results:

binding result [1] | binding result [2] | Human 4A:parental cell ratio (human MS4A4A [3]) [ratio] | Cyno 4A:parental cell ratio (cynomolgus (cyno) MS4A4A [4]) [ratio] | binding result [5] | binding result [6] | Kd (human MS4A4A [9]) [nM] | Kd (cynomolgus (cyno) MS4A4A [10]) [nM] | binding result [11] | Binder | further results
no binding (tested: 2000 nM) | no binding (tested: 2000 nM) | 27.3 | 8.49 | no binding | no binding |  |  |  | anti-MS4A4A antibody 4A-5 (antibody, V domains shown, murine hybridoma antibody) VH: EVKVEESGGGLVQPGGSMKLSCAASGFTFSDAWMDWVRQSPEKGLEWVAEIRSKTNSHATYYAESVKGRFTISRDDSKSSVYLQMNSLRAEDTGIYYCTVDYYGIFWGQGTLVTVSS VL: not shown | 
no binding (tested: 2000 nM) | no binding (tested: 2000 nM) | 4.2 | 0.647 | no binding |  |  |  |  | anti-MS4A4A antibody 4A-14 (antibody, V domains shown, murine hybridoma antibody) VH: EVKLEESGGGLVQPGGSMKLSCAASGFTFSDAWLDWVRQSPEKGLEWVAEIRSKANDHATYYAESVKGRFTISRDDSKSRFYLQMNSLRAEDTGIYYCSVDYYGFFWGQGTLVTVSA VL: not shown | binding result [7]: binds; binding result (cynomolgus (cyno) MS4A4A [8]): no binding
no binding (tested: 2000 nM) | no binding (tested: 2000 nM) | 9.58 | 3.96 | no binding | no binding |  |  |  | anti-MS4A4A antibody 4A-12 (antibody, V domains shown, murine hybridoma antibody) VH: QVQLQQSGAELAQPGASVKMSCKASGYTFSSYWMYWVKQGPGQGLEWIGYINPGTGYTEYNQKFKDKATLTADKSSSTAYMQLSSLTSEDSAVYYCARFYYGSPYYYAMDYWGQGTSVTVSS VL: DIVMTQSQKFMSTSVGDRVTFTCKASQSVDTDVAWYQQKPGQSPKLLIYSASNRYTGVPDRFTGSGSGTDFTLTISNVQSEDLADYFCHQYNSYPLTFGAGTKLELK | 
 |  |  |  |  |  | 3.5 | 1.8 |  | anti-MS4A4A antibody 4A-202, huIgG1 chimera (antibody, V domains shown) VH: QVQLQQSGAELARPGASVKLSCKASGYTFTNYWMQWVKQRPGQGLEWIGATHPGHGDTRYTQKFKGKATLSADKSSSTAYMQLSNLASEDSAVYYCAREEVYYGFRSYWYFDVWGAGTTVTVSS VL: not shown | 
